# Results: the DeepSol protein solubility set
# Test: soluble on expression in E. coli; label from the status in PepcDB or PDB records
row,Sequence,soluble on expression in E. coli
1,RSECMGFFRRLLGLSWISIPKLPKKERKNNHDESENESLGNGYDTGESENLSGYLNNSEYEDGPAGESADDPDDYIPPHKEEGENDSSQSIQMGSMTVELAQEEEKADEALLAEIKTDPRMDLASYKFPSVDLLTQYDLQQPPIDMNEIEENQKRIIATLDSFKIHVTPIKATVGPTVTLYEVAPDSGIKISRIRNLEDDIAMSLKAVGGIRIIAPMPGKGTIGIEVPNRKPQTVSMYSVLTSKKYQESDMDLPVALGKTITNEVFIFDLCKMPHLLIAGATGQGKSVGLNAMITSLLYKKHPAELKFVLVDPKMLEFAVYEAIERHYLAKLPDEDRAIVTDMTKVVPTLNSLCIEMDNRYRMLTEARVRNIKEYNDQIISGKLSRLHGHKFLPYIVLIVDEFADLIMTSGKEVERPITRIAQKARAAGIHMVVATQRPSTDIITGIIKANFPARIAFKVFSMIDSRTILDQPGANQLVGRGDMLFYQGKDTVRLQCAFLDTPECEAVTHHISLQESYTSAYELPEYVPEGEEGGPKAFNPQEKDPLFEEVARMVVNSQQGSTSNIQRKFNIGYNRAGRLMDQLEGAGIVSPQDGSKPRQVLIQDEMSLERLFETLR,not soluble
2,RSVAAPLVKLRKATQNIKEGNLDFVLDVEGTDEFSELCRDFEEMRRRLKESAEEKIAMDKENKELISNISHDLKTPITAVKGYVEGIMDGVADTPEKMDRYVRTIYNKTNEMDHLINELTFYSKIDTNRIPYTFSKLNVEDYFSDCAEEVGLELETRGIQLCYANYVDKDVLVIA,not soluble
3,RSVAYDLIFGNKNTTKYYAQFVKEHKTHLYEQIKQINNDEFRFVEKTKRHNLG,not soluble
4,RYDKPGDKIDDGTELKLKGEKLKYVSRGGLKLEKGLHVFGVSVANQIGIDIGASTGGFTDVMLQDGAKLVYAVDVGTNQLVWKLRQDPRVRSMEQYNFRYAQPEDFNEGQPVFASIDVSFISLSLILPALHNVLSDQGQVIALIKPQFEAGREQIGKKGIVKDKQIHEKVIQKVMDFASGYGFTVKGLDFSPIQGGHGN,not soluble
5,SAEAEGLADWMSKLNETFTTVPLCYIAIPGSHDAMAYSLDMDSPLLEPDSLITMDLICCGCCRSIVKNWSITQDKTISEQLDAGMRYFDLRVAGKPGSSDFFFYHGLYTTITVKEAMEEVDTWLGKHSKEVVILAFSHFKEMSTEQHTKLMTFLKDHFKAKLCPDDGMPSLKDCWDKAYQVILSYDDRNRKQDRVLWPGIKYWWANNSDPNEAILFLDNKKQSGRPKGFFVAGLNLTFYGCSIFSNLTASLKEKTVTAYPLLLDWVKKQRPGSDTQSINIIAGDFFDVNSFAQDIIQLNDAKTN,soluble
6,SAHSAAAVPLGALEQGCPIRVEHDRRRRQFTVRLNGCHDRAVLLYEYVGKRIVDLQHTEVPDAYSGRGIAKHLAKAALDFVVEEDLKAHLTCWYIQKYVKENPLPQYLERLQP,soluble
7,SAKVSELYDVTWEEMRDKMRKWREENSRNSEQIVEVGEELINEYASKLGDDIWIIYEQVMIAALDYGRDDLALFCLQELRRQFPGSHRVKRLTGMRFEAMERYDDAIQLYDRILQEDPTNTAARKRKIAIRKAQGKNVEAIRELNEYLEQFVGDQEAWHELAELYINEHDYAKAAFCLEELMMTNPHNHLYCQQYAEVKYTQGGLENLELSRKYFAQALKLNNRNMRALFGLYMSASHIASNPKASAKTKKDNMKYASWAASQINRAYQFAGRSKKETKYSLKAVEDMLETLQITQS,not soluble
8,SALSCSLQGPPEGSIENLINTISRDVTTLQSYMQRRKEEYDCILKTCPVCGAVEEYAFSTVSPTATFEQLNPENRILYELQQINEQRRTLYEDIVSVQQKPECELCLLCALHESAFECGATPTANSFTSQVQSQHTQQQQTPVFSESVVPRPTILSNKTRVFVV,soluble
9,SALTIFSVKDPQNSLWHSTNAEEIQQQLNAKGVRFERWQADRDLGAAPTAETVIAAYQHAIDKLVAEKGYQSWDVISLRADNPQKEALREKFLNEHTHGEDEVRFFVEGAGLFCLHIGDEVFQVLCEKNDLISVPAHTPHWFDMGSEPNFTAIRIFDNPEGWIAQFTGDDIASAYPRLA,soluble
10,SAQFINGTINSWFGNDTHEALERSLNLSKSALNLAADNALGNAVPVQIDLIGAASLPGDMGRVLEHYAGSGFAQLALYNAASGKIEKSINPHKLDQPFPGKARWEKIQRAGSVRDLESIGGVLYAQGWLSAGTHNGRDYALFFRQPVPKGVAEDAVLIEKARAKYAELSYSKKGLQT,not soluble
11,SARRISSQGKVTISVDEYSSNPTQAFTHYNINQSRFQPPHVHMVEPLPYDAPKSVGHTRFVCVSDTHSRTDGIQMPFGDVLLHTGDFTELGLPSEVKKFNDWLGGLPYEYKVVIAGNHELTFDKDFMAELIKQDYYRFPSVSKLRSEDFDDVQSLLTNCVYLQDSEVTIKGFRIYGAPWTLWFNGWGFNLPRGQSLLDKWNQIPEDVDILMTHGPPLGFRDWLPKELQRVGCVELLNTVQKRVRPKLHAYGGIHEGYGIMTDGYTTFINSSTCTVSFQPTNPPIIFDLPNPGNS,soluble
12,SDFVITGGGIVGLATALRLQSLHPGARISVLEKEPAVARHQSGRNSGVIHAGVYYAPGSHKARFCARGVSSTRAFCDEHGIPYRICGKLIVATDAAELERMGTLETRARANGIVIERLSGEEARRLEPNIKAVGALLSPTTGIVDYGRVAERMAELFRDRGGEIRLDTEVTGGAESEAGVRLETTAGEISAGKAVFCGGLHADRLARAFGASLDFRIVPFRGEYFAIKNQPEDLVQHLIYPVPDPARPFLGVHLTRKMNGGFTVGPN,not soluble
13,SDHVDLPYNLTATKIDSDVFVVTDRDFYSSNVLVAKMLDGTVVIVSSPFENLGTQTLMDWVAKTMKPKKVVAINTHFHLDGTGGNEIYKKMGAETWSSDLTKQLRLEENKKDRIKAAEFYKNEDLKRRILSSHPVPADNVFDLKQGKVFSFSNELVEVSFPGPAHSPDNVVVYFPKKKLLFGGCMIKPKELGYLGDANVKAWPDSARRLKKFDAKIVIPGHGEWGGPEMVNKTIKVAEKAVGEMRL,soluble
14,SDQVFVMGHRYPDMDVIGSSLGVMRIAEMNNRNAYVVVEPGKMSPDVKRLMNEIEEYPNVIKNIVTPQVALENITEKSLLVVVDTHKPSMVINKELLDSATNVVVVDHHRRSEEFVGNPVLVYIEPYASSTAELITELFEYQPDLEQVGKIEATALLSGIVVDTKNFTLRTGSRTFDAASYLRSLGADTILVQQFLKEDI,not soluble
15,SDRKSDRELLYFRKKLQRKLGPISIATPEALLNAHEMLRDKMHYFIEQTQCSVGIFIHRGFKHAGKVLLLMENEGDEELLAYARSLARNNGSVLDVLPETDGLPPTLSMGENRLKAGLPSTINISSYHFMLVSYRYWLRFAGECPSVIEHLPSTIIIHHRNDRSSTLKAAMI,not soluble
16,SDRSAEFRKWKAQCLSKADLSRKGSVDEDVVELVQFLNMRDQFFTTSSCAGRILLLDRGINGFEVQKQNCCWLLVTHKLCVKDDVIVALKKANGDATLKFEPFVLHVQCRQLQDAQILHSMAIDSGFRNSGITVGKRGKTMLVVRSTHGLEVPLSHKGKLMVTEEYIDFLLNVANQKMEENKKRIERFYNCLQHALERETMTNLHPKIKEKNNSSYIHKKKRNPEKTRAQCITKESDEELENDDDDDLGINVTIFPEDY,soluble
17,SDTNSNQGIAFVHGTRDHREDAYGGYWKIDFIQSISQTLAKPENHYVVHCDFSQYMWHEDAANCVANQLLEFINDKNVSSLTVYTHSDGANIMRWILSNPTYDGRYMTLKRKISQVIAIAPSSGGTPLADEVLNGGIFETSLAWLLGYLSDAVKQQRVGDMLIYNEELLLGSKGRPSLSIPFKVIVGTDVYASPFSTSSYCNGYMLNSGLKIAKLYLNQCADGFLDCESQAQAGEVWFYDIDKTDYNLPLSHNQSRHSCFGLDQI,not soluble
18,SEGSASEVLKEWIVTGKKKNKKKKSKPKPASEASGSAPDSSKSAPIQEEQPASSEKGSINGYHVNGAINDAESVDSLSEGLETLSIDARELEDPEFAAAETLDRTGSVLENGVSDFEPKSLTAHSISNVQQSRNAAKSLSRTTPGAQVSNLGMENVPLSSTNKKLGSNIEKSVKDLQRCTVSLARYRVVVKEEMDASIKKMKQAFAELQSCLMDREVALLAEMDKVKAEAMEILLSRQKKAELLKKMTDVAVRMSEEQLVELRADIKHFVSERKYDEDLGRVARFTCDVETLKQSIDSFGQVSHPKNSYSTRSRCSLVAPVSLSGPSDGSAASSSPDASVPSLPGANKRNCAPREASAAMTNSSDRPCQAHREVFPGNRRGGQGYRAQSQKTADPSNPGRHDSVGRYRNSSWYSSGPRYQGVPPQAPGNAGERSRPYSAGTNGTGAISEPSPPKPSFKKGLPQRKPRASQAEAANS,not soluble
19,SEKKECPEKSSSSEEELPRRDSGSSRNIDASKLIRLQGSRKLLVDNSIRELQYTKTGIFFQAEACVTNDTVYRELPCVSETLCDISHFFQEDDETEAEPLLFRAVPECQLSGGDIPSVSEEQESSEGQDSGDICSEENQIVSSYASKVCFEIEEDYKNRQFLGPEGNVDVELIDKSTNRYSVWFPTAGWYLWSATGLGFLVRDEVTVTIAFGSWSQHLALDLQHHEQWLVGGPLFDVTAEPEEAVAEIHLPHSISLQAGEVDVSWFLVAHFKNEGMVLEHPARVEPFYAVLESPSFSLMGILLRIASGTRLSIPITSNTLIYYHPHPEDIKFHLYLVPSDALLTKAIDDEEDRFHGVRLQTSPPMEPLNFGSSYIVSNSANLKVMPKWISSL,soluble
20,SEPTAPSLTEEDLTEVKKDALENLRVYLCEKIIAERHFDHLRAKKILSREDTEEISCRTSSRKRAGKLLDYLQENPKGLDTLVESIRREKTQNFLIQKITDEVLKLRNIKLEHLKGLKCSSCEPFPDGATNNLSRSNSDESNFSEKLRASTVMYHPEGESSTTPFFSTNSSLNLPVLEVGRTENTIFSSTTLPRPGDPGAPPLPPDLQLEEEGTCANSSEMFLPLRSRTVSRQ,soluble
21,SESICNSLNSKLEPTLENLENLDVSAFQAPEDLLDGCRIYLCGFSGRKLDKLRRLINSGGGVRFNQLNEDVTHVIVGDYDDELKQFWNKSAHRPHVVGAKWLLECFSKGYMLSEEPYIH,soluble
22,SESQSEEIDCNDKDLFKAVDAALKKYNSQNQSNNQFVLYRITEATKTVGSDTFYSFKYEIKEGDCPVQSGKTWQDCEYKDAAKAATGECTATVGKRSSTKFSVATQTCQITPAEGPVVTAQYDCLGCVHPISTQSPDLEPILRHG,soluble
23,SFDNLRNELSRPYGILFINNKIFLEFISKSIQRGSRIITVGDYVSRVLEENGIVPFLEVIDGKTKRTITQNRAITRNKEYKVTNEAGKIRFEIFEIMENILKDREGGVVFVDGEEDLLVIPVTLSANHGDIVIYGQPNAGAVVIIVNEMIRWRVRDILEKAIVKE,not soluble
24,SFLSEAGARPRAGEISASERRKWVEVFKACDEDNKGYLSREDFKVAIVMLFGYKPSKIEADAVMSSANPDTSGVSLEGFLNVVQRKKEAQLYRNEIRHIFTAFDVHYRGFLTLEDFKRAFSQVAPKLPSRTVLEVFREADQDSDGHVSFRDFEYAMNHGKAK,soluble
25,SFYSGLLTEGGRKETDMREAASLRQQRRMKQAVQFIHKDSADLLPLDGLKKLGSSKDMQPHNILQRRLMETNLSKLRSGPRVPWASKTNKLNQAKSEGLKKSEEDDMILVSCQCAGKDVKALVDTGCLYNLISLACVDRLGLKEHVKSHKHEGEKLSLPRHLKVVGQIEHLVITLGSLRLDCPAAVVDDNEKNLSLGLQTLRSLKCIINLDKHRLIMGKTDKEEIPFVETVSLNEDNTSEA,soluble
